Experimental data: US12084521B2, “TLR9 inhibitors to suppress inflammatory response to pathogens” (University Of Maryland, Baltimore, priority 2018, dated 2024)
No end group written: not given here. Cy3 = Cy3 fluorescent dye label

How the values were obtained:
MyD88 TIR = biological target: T1, MyD88 TIR (Homo sapiens, UniProt Q99836); assay: FLIM/FRET binding of Cy3-labeled peptides to Cer-fused TIR in HeLa cells
T1 construct: expressed in transfected cells; host or cells: HeLa
Description: (§1) Three million HeLa cells were transfected with 10 μg of MyD88-Cer, TIRAP-Cer, TRAM-Cer, TLR2-Cer, TLR4 TIR-Cer, or TLR9 TIR-Cer expression vectors using a Lipofectamine™ 3000 kit from Invitrogen™ per manufacturer recommendations. Twenty four hours later, the transfected cells were trypsinized and reseeded into a 50-well gasket (Grace Bio-Labs™) mounted on a microscope slide at the density 8000 cells/well. The next day, cells were treated with Cy3-9R34-ΔN or Cy3-9R11 for 1 hour and fixed on the slides with a 4% paraformaldehyde solution.
(§2) Fluorescence lifetime images were acquired using the Alba V FLIM™ system (ISS™ Inc.). The excitation was from the laser diode 443 nm coupled with scanning module (ISS™) through multiband dichroic filter 443/532/635 nm (Semrock™) to Olympus™ IX71S microscope with objective 20×0.45 NA (UPlan™ Olympus™). Emission was observed through bandpass filter […] (Chroma Technology™) and detected by a photomultiplier H7422-40 (Hamamatsu™). Measurements were performed using frequency domain (FD) and time domain (TD) modalities of the FLIM system. FD FLIM data were acquired using ISS™ A320 FastFLIM™ electronics with n harmonics of 20 MHz laser repetition frequency (n=1, 2, 3, 4, 5, 6). FastFLIM™ was calibrated using fluorescein in buffer pH 8.0 as a standard with a single lifetime of 4.0 ns. TD FLIM images were acquired using time-correlated single photon counting TCSPC™ Model SPC-830 (Becker & Hick™).
(§3) Images (256×256 pixels) were acquired with resolution varied in the range ˜0.4-0.7 μm/pixel, using scan speed 1 ms/pixel. To avoid pixel intensity saturation in bright cells and to improve the signal from dim cells, two to five overlapping scans were used for acquisition of FLIM images. Image sizes varied from 100×100 to 180×180 μm to accommodate multiple cells. FLIM data were analyzed with VistaVision™ Suite software (Vista™ v.212 from ISST). Fluorescence lifetime was determined using single- and bi-exponential intensity decay models. Average lifetime images were generated based on pixel-by-pixel analysis using the combined signal of two neighboring pixels in all directions (bin 2=25 pixels). The binning was used to improve the signal for analysis. The average lifetimes were calculated from fitted parameters, decay times τi and amplitudes αi, τa=Σαiτi. The bi-exponential fitting procedure was performed with one lifetime component fixed at 3.1 nsec, which was found common for most images. To calculate the effective FRET efficiency (E), average lifetimes of the donor only images (τD) and donor-acceptor images (τDA) were used, E=1−τDA/τD.
(§4) To identify potential binding partners of inhibitory peptides a FRET approach coupled with Fluorescence Lifetime Imaging Microscopy (FLIM) was used. HeLa cells were transiently transfected with an expression vector that encodes a TIR domain fused with Cerulean fluorescent protein (Cer). Cells were treated with various concentrations of a Cy3-labeled inhibitory peptide 48 hours after transfection. Cy3 is a suitable FRET acceptor for Cer fluorescence. A direct molecular interaction of a Cy3-labeled peptide with Cer-fused TIR domain should quench Cer fluorescence, leading to a decreased fluorescence lifetime.
(§5) TLR9, MyD88, and TIRAP were selected as potential primary binding partners for Cy3-9R34-ΔN and Cy3-9R11. Cer-fused TLR2 and TLR4 TIR domains, and Cer not fused to a TIR, were used as controls. […] Therefore, the TIRAP-Cer with Cy3-2R9 was used as a positive binding control. Binding of Cy3-labeled CPDPs to Cerulean- (Cer-) labeled TIR domains was tested as follows. Fluorescence Lifetime IMages (FLIM) were made of HeLa cells expressing Cer not fused with a TIR domain (upper row) or fused with TLR9 TIR or TIRAP TIR (middle and bottom rows) and treated with a Cy3-labeled decoy peptide for 1 hour.
(§6) A progressive shift of average fluorescence lifetime towards lower values observed with increasing peptide concentrations indicates the binding between donor and acceptor moieties. […]

TIRAP TIR = biological target: T2, TIRAP TIR (Homo sapiens, UniProt P58753); assay: as above
T2 construct: fused with TLR9 TIR or TIRAP TIR; expressed in transfected cells; host or cells: HeLa
Description: as §1, §2, §3, §4, §5, §6

TLR9 TIR = biological target: T3, TLR9 TIR (Homo sapiens, UniProt Q9NR96); assay: as above
T3 construct: expressed in transfected cells; host or cells: HeLa
T3 sequence (Q9NR96 868-1013 limits assumed): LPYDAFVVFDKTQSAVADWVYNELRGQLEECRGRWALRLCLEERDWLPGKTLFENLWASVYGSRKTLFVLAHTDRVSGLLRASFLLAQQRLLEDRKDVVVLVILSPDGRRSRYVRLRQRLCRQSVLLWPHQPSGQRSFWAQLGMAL
Description: as §1, §2, §3, §4, §5, §6

[1] = system: Cer not fused to a TIR domain; assay: FLIM/FRET control construct in HeLa cells; type: binding; conditions: peptide 40 μM
Description: as §1, §2, §3, §5

TLR2 TIR-Cer = biological target: T4, TLR2 TIR-Cer (Homo sapiens, UniProt O60603); assay: FLIM/FRET control construct in HeLa cells; type: binding; conditions: peptide 40 μM
T4 construct: Cer-fused TLR2 and TLR4 TIR domains; expressed in transfected cells; host or cells: HeLa
Description: as §1, §2, §3, §5

TLR4 TIR-Cer = assay: FLIM/FRET control construct in HeLa cells; type: binding; conditions: peptide 40 μM
Description: as §1, §2, §3, §5

TRAM-Cer = biological target: T5, TRAM-Cer (Homo sapiens, UniProt Q86XR7); assay: FLIM/FRET control construct in HeLa cells; type: binding; conditions: peptide 40 μM
T5 construct: expressed in transfected cells; host or cells: HeLa
Description: as §1, §2, §3, §5

T1 sequence (Q99836 159-293 limits assumed): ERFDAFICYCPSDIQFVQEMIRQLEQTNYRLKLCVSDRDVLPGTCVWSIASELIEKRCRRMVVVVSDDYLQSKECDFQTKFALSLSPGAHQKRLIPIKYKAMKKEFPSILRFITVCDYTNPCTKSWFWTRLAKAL
T2 sequence (P58753 84-213 limits assumed): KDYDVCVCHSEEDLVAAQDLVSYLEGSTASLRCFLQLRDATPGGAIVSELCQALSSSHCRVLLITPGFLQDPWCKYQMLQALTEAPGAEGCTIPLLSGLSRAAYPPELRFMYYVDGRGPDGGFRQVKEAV
T4 sequence (O60603 639-782 limits assumed): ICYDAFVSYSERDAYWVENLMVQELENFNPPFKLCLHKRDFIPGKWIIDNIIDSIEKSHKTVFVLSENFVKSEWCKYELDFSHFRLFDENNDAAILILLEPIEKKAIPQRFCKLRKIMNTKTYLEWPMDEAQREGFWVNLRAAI
T5 sequence (Q86XR7 whole entry): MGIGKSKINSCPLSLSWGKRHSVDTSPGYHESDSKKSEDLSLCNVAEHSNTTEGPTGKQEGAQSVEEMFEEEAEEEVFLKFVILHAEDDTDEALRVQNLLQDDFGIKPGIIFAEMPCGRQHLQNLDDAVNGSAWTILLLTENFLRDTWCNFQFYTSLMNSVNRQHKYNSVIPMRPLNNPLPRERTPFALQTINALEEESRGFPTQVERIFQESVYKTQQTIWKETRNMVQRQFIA

- quenching of MyD88 TIR-Cer (MyD88 TIR; peptide 40 μM, considerably less than on TLR9 and TIRAP TIR-Cer): notable
- average fluorescence lifetime of Cer-labeled MyD88 TIR (MyD88 TIR; peptide 2.5 and 10 μM): not affected
- effect on TIRAP-Cer fluorescence at the lowest peptide concentration (TIRAP TIR; 2.5 μM): absence of the effect
- quenching of TIRAP-Cer fluorescence (TIRAP TIR; HeLa cells, Cy3-peptide 2.5-40 μM, 1 hour): notably quenched
- FRET efficiency, TLR9 TIR-Cer (TLR9 TIR; HeLa cells, Cy3-peptide 2.5-40 μM, 1 hour, dose-dependent): 9-23%
- fluorescence lifetime of TLR9 TIR-Cer construct (TLR9 TIR; minimal peptide concentration 2.5 μM): decreased
- fluorescence lifetime of control TLR2 TIR-Cer (TLR2 TIR-Cer): slightly affected
- fluorescence lifetime of control TRAM-Cer (TRAM-Cer): slightly affected
Substance: Cy3-9R34-ΔN: Cy3-labeled 9R34-ΔN peptide, Cy3 label placed at the peptide N-terminus (Cy3-RQIKIWFQNRRMKWKKALRLCLEERD)
- fluorescence lifetime of Cer not fused to a TIR domain (unspecific quenching) [1]: slightly affected
- fluorescence lifetime of control TLR4 TIR-Cer (TLR4 TIR-Cer): slightly affected
